Read-outs that look alike come from different tables or passages of the source. Square brackets hold non-standard residues; d marks the D form. Ends that are not written are not given here. Tam = not defined here
How the values were obtained:
Assay in all cases: cell-based or functional assay
[1] = target: T1, His-Tau40 P301L Tau fibrils (human)
T1 chain: RLRIRW

[2] = target: T1, His-Tau40 P301L Tau fibrils
[3] = target: Tau40 P301L protein (human)

RRRRRRRRRRGGSGG[dE][dL][dK][dI][dV][dW] [RRRRRRRRRR-GGSGG-elkivw]
EC50, HEK cell assay (TauRD(P301S) split luciferase, seeded with tau fibrils) [1]: 11.7 µM

Tam-RRRRRRRRRGGSGG[dW][dR][dL][dK][dV][dR][dW][dW] (reading uncertain; also: printed as Tam-RRRRRRRRR-GGSGG-wrlkvrww) [Tam-RRRRRRRRR-GGSGG-wrlkvrww]
EC50, HEK cell assay (TauRD(P301S) split luciferase, seeded with tau fibrils) [2]: 1.5 µM
IC50, Tau40 assay-Modified peptides (ThT) [3]: 20.5 µM

Tam-YGRKKRRQRRRGGSGG[dW][dR][dL][dK][dV][dR][dW][dW] (reading uncertain) [Tam-[…]-GGSGG-wrlkvrww]
EC50, HEK cell assay (TauRD(P301S) split luciferase, seeded with tau fibrils) [2]: 1.8 µM
IC50, Tau40 assay-Modified peptides (ThT) [3]: 6.6 µM

RRRRRRRRRRGGSGG[dW][dR][dL][dK][dV][dR][dW][dW] [RRRRRRRRRR-GGSGG-wrlkvrww]
EC50, HEK cell assay (TauRD(P301S) split luciferase, seeded with tau fibrils) [2]: 1.7 µM
EC50, HEK cell assay (TauRD(P301S) split luciferase, seeded with tau fibrils) [1]: 2.3 µM

RRRRRRRRRGGSGG[dW][dR][dI][dW][dI][dR][dY][dW] [RRRRRRRRR-GGSGG-wriwiryw]
EC50, HEK cell assay (TauRD(P301S) split luciferase, seeded with tau fibrils) [1]: 0.9 µM

RRRRRRRRRRGGSGG[dL][dE][dL][dK][dI][dK][dF][dW] [RRRRRRRRRR-GGSGG-lelkikfw]
EC50, HEK cell assay (TauRD(P301S) split luciferase, seeded with tau fibrils) [1]: 16.4 µM

Tam-RRRRRRRRRRGGSGG[dW][dK][dV][dQ][dV][dR][dL][dW] (reading uncertain; also: printed as Tam-RRRRRRRRRR-GGSGG-wkvqvrlw) [Tam-RRRRRRRRRR-GGSGG-wkvqvrlw]
EC50, HEK cell assay (TauRD(P301S) split luciferase, seeded with tau fibrils) [2]: 1.5 µM
IC50, Tau40 assay-Modified peptides (ThT) [3]: 5.53 µM

RRRRRRRRRRGGSGG[dW][dK][dV][dQ][dV][dR][dL][dW] [RRRRRRRRRR-GGSGG-wkvqvrlw]
EC50, HEK cell assay (TauRD(P301S) split luciferase, seeded with tau fibrils) [1]: 2.1 µM

RRRRRRRRRRGGSGG[dT][dL][dK][dI][dV][dW] [RRRRRRRRRR-GGSGG-tlkivw]
EC50, HEK cell assay (TauRD(P301S) split luciferase, seeded with tau fibrils) [1]: 2.9 µM

Tam-RRRRRRRRRRGGSGG[dT][dL][dK][dI][dV][dW] (reading uncertain; also: printed as Tam-RRRRRRRRRR-GGSGG-tlkivw) [Tam-RRRRRRRRRR-GGSGG-tlkivw]
EC50, HEK cell assay (TauRD(P301S) split luciferase, seeded with tau fibrils) [2]: 3.6 µM
IC50, Tau40 assay-Modified peptides (ThT) [3]: 4.92 µM

Tam-RRRRRRRRRRGGSGG[dL][dE][dL][dK][dI][dK][dF][dW] (reading uncertain; also: printed as Tam-RRRRRRRRRR-GGSGG-lelkikfw) [Tam-RRRRRRRRRR-GGSGG-lelkikfw]
EC50, HEK cell assay (TauRD(P301S) split luciferase, seeded with tau fibrils) [2]: 12.1 µM
IC50, Tau40 assay-Modified peptides (ThT) [3]: 8.71 µM
